Experimental data published in IntAct's records for PubMed 30283133.

B1: D-alanyl carrier protein (Streptococcus thermophilus (strain ATCC BAA-250 / LMG 18311)), Q5M4V3 (parent)
chain: MDVKAEVIEIIDELFMEDVSDMMDEDLFDAGVLDSMGTVELIVELESRFDIRVPVSEFGRDDWNTANKIVEGVTELRNA
partner: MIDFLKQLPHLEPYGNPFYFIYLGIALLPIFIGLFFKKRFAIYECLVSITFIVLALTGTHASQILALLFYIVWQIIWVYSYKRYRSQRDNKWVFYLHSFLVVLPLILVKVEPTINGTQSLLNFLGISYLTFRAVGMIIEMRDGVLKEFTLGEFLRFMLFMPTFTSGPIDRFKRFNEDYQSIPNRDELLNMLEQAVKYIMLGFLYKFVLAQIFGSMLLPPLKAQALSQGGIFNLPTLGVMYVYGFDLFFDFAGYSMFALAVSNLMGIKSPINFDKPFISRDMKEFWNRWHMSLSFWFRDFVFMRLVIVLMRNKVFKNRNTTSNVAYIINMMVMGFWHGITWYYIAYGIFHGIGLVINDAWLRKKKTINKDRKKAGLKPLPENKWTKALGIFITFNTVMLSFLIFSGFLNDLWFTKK
B2: Teichoic acid D-alanyltransferase (Streptococcus thermophilus (strain ATCC BAA-250 / LMG 18311)), Q5M4V4 (parent)
chain: B1 partner
partner: B1 chain

Variants of: B1
Conditions: with dltb_strt2 dltB

How did the “effect of a mutation on the interaction” value turn out when V39R was run?
Its value is “decreasing interaction”.

For V39D, which “effect of a mutation on the interaction” value is on record?
The value was “decreasing interaction”.

Variants of: B1
Conditions: with dltb_strt2 dltB, Q5M4V4

With V39D as the variant, how does the “effect of a mutation on the interaction” value read?
Its value is “decreasing interaction strength”.

With S35A as the variant, how does the “effect of a mutation on the interaction” value read?
The value was “decreasing interaction”.

Variants of: B2
Conditions: with dltc_strt2 dltC

Which “effect of a mutation on the interaction” value does the source give for V305D;I306D here?
Its value is “disrupting interaction”.

V305D was tested. Which “effect of a mutation on the interaction” value did it give?
Its value is “decreasing interaction”.

Variants of: B2
Conditions: with dltc_strt2 dltC, Q5M4V3

With V305D;I306D as the variant, how does the “effect of a mutation on the interaction” value read?
The value was “disrupting interaction strength”.

Which “effect of a mutation on the interaction” value does the source give for V305R here?
Its value is “decreasing interaction strength”.
